These results are taken from article PMC8178886, “Recombinant laccase rPOXA 1B real-time, accelerated and molecular dynamics stability study” (BMC Biotechnology, 2021).

Substrate in this data set: CCn1c(=NN=c2sc3cc(S(=O)(=O)O)ccc3n2CC)sc2cc(S(=O)(=O)O)ccc21
Description: cells, lysate or membranes. Type of data set: biochemical, Pleurotus ostreatus. The conditions noted are these: unpurified concentrate stored 12 months at 240.98 K (-32.55 °C), activity unchanged, 0.1 M citrate pH 3.0, 25 °C, ABTS 0.1-3 mM (all above the KM), air O2.

B1: rPOXA 1B (Pleurotus ostreatus) (protein)
chain: SIGPRGTLNIANKVIQPDGFYRSTVLAGGSYPGPLIKGKTGDRFQINVVNKLADTSMPVDTSIHWHGLFVKGHNWADGPAMVTQCPIVPGHSFLYDFEVPDQAGTFWYHSHLGTQYCDGLRGPLVVYSKNDPHKRLYDVDDESTVLTVGDWYHAPSLSLTGVPHPDSTLFNGLGRSLNGPASPLYVMNVVKGKRYRIRLINTSCDSNYQFSIDGHTFTVIEADGENTQPLQVDQVQIFAGQRYSLVLNANQAVGNYWIRANPNSGDPGFENQMNSAILRYKGARSIDPTTPEQNATNPLHEYNLRPLIKKPAPGKPFPGGADHNINLNFAFDPATALFTANNHTFVPPTVPVLLQILSGTRDAHDLAPAGSIYDIKLGDVVEITMPALVFAGPHPIHLHGHTFAVVRSAGSSTYNYENPVRRDVVSIGDDPTDNVTIRFVADNAGPWFLHCHIDWHLDLGFAVVFAEGVNQTAAANPVPEAWNNLCPIYNSSNPSKLLMGTNAIGRLPAPLKA
notes: recombinant, made in Pichia pastoris X33/pGAPZalphaA-LaccPost-Stop clone 1 (10 L bioreactor); unpurified enzyme concentrate without preservatives
In the case of B1, the Michaelis-Menten constant (Km) was found to be 41.4 ± 4.6 µM and the Vmax came to 10.2 µM/min.
